Residue numbers refer to the chain shown, from its start.
B1: ALK Antibody 1: mouse hybridoma anti-ALK antibody against extracellular domain of human ALK receptor; VL/VH sequences in Tables 1 and 2 (antibody, V domains shown)
VH: QVQLQQSGAELVKPGASVKISCKASGYAFSSYWMNWVKQRPGKGLEWIGQIYPGDGDTNYNGKFKGKATLTADKSSSTAYMQLSSLTSEDSAVYFCASYYYGSKAYWGQGTLVTVSA
VL: DIQMTQSPASLAASVGETVTITCRASENIYYSLAWYQQKQGKSPQLLIYNANSLEDGVPSRFSGSGSGTQYSMKINSMQPEDTATYFCKQAYDVPFTFGSGTKLEIKR
B2: ALK Antibody 7: mouse hybridoma anti-ALK antibody against extracellular domain of human ALK receptor; VL/VH sequences in Tables 1 and 2 (antibody, V domains shown)
VH: QVQLQQSGAELAKPGASVKLSCKASGYTFTSYWMHWVKQRPGQGLEWIGYINPSSGYTKYNQKFKDKATLTADKSSSTAYMQLSSLTFEDSAVYYCARDYYGSSSWFAYWGQGTLVTVSA
VL: DIVMTQSQKFMSTSVGDRVSVTCKASQNVGTNVAWYQQKPGHSPKALIYSASYRYSGVPDRFTGSGSGTDFTLTISNVQSEDLAEYFCQRYNSYPYMFTFGGGTKLEIKR
B3: ALK Antibody 3: mouse hybridoma anti-ALK antibody against extracellular domain of human ALK receptor; VL/VH sequences in Tables 1 and 2 (antibody, V domains shown)
VH: B2 VH with S31N, F88Y
VL: B2 VL with K9R, H42Q, I75V, R90Q, F98Y
B4: ALK Antibody 5: mouse hybridoma anti-ALK antibody against extracellular domain of human ALK receptor; VL/VH sequences in Tables 1 and 2 (antibody, V domains shown)
VH: B2 VH with N52K, F88Y
VL: B2 VL with K9R, H42Q, R90Q, F98Y
B5: ALK Antibody 6: mouse hybridoma anti-ALK antibody against extracellular domain of human ALK receptor; VL/VH sequences in Tables 1 and 2 (antibody, V domains shown)
VH: DVKLVESGEGLVKPGGSLKLSCAASGFTFSSYAMSWVRQTPEKRLEWVTYISSGGDYIYYADTVKGRFTISRDNARNTLYLQMSSLKSEDTAMYYCTRERIWLRRFFDVWGTGTTVTVSS
VL: DIVMTQSQKFMSTSVGDRVSITCKASQNVGTAVAWYQLKPGQSPKLLIYSASNRFTGVPDRFTGSGSGTDFTLTISNMQSEDLADYFCQQYSSYPLTFGSGTKLEIKR

Molecular target: ALK (Homo sapiens, UniProt Q9UM73)
Sequence (Q9UM73 19-1620): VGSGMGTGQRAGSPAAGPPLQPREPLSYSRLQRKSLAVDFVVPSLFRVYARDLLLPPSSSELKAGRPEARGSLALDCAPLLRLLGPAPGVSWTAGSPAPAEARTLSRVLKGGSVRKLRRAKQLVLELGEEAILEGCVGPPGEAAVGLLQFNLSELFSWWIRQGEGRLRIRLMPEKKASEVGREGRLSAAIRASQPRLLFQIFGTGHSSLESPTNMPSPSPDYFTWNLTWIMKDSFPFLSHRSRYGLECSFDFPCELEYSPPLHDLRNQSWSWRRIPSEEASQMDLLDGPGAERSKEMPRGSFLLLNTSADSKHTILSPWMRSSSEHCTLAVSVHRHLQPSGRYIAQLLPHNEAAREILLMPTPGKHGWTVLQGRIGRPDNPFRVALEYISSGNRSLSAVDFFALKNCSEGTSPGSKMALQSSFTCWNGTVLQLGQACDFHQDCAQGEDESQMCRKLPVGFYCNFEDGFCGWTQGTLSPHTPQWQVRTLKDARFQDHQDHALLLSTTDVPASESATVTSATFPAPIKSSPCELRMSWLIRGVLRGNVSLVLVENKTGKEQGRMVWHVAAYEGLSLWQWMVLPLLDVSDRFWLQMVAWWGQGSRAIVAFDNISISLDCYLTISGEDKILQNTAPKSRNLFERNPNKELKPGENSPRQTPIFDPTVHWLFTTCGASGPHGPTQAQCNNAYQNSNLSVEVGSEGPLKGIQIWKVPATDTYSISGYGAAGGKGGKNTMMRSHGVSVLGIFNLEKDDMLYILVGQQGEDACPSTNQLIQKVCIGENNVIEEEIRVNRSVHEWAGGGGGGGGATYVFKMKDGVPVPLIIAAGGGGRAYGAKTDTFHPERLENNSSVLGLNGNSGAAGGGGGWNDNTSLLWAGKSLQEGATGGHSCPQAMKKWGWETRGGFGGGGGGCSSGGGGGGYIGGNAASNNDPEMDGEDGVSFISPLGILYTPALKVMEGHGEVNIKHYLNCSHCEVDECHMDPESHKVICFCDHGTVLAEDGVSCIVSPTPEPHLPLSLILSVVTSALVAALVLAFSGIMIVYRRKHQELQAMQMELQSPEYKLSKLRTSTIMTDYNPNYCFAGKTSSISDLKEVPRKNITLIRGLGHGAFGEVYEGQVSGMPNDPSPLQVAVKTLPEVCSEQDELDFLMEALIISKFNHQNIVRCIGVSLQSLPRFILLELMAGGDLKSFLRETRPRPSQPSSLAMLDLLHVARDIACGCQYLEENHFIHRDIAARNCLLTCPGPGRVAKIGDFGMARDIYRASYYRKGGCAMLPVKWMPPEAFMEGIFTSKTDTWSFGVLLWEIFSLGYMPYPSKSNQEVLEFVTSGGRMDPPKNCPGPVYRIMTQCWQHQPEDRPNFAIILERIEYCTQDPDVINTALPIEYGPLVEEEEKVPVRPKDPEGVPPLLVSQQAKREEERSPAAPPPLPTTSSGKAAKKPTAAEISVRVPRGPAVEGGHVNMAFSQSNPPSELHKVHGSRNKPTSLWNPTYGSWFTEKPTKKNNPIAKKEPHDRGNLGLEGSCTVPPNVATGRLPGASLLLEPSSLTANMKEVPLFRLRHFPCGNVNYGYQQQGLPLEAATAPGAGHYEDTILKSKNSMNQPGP
Experiment: ALK phosphorylation / ALK signaling activity of ALK antibodies
Assay type: cell-based
Method: (§1) Seven (7) ALK-specific antibodies (ALK Antibodies #1-#7) directed against the extracellular domain of human ALK receptor were evaluated for use in CAR-based immunotherapy.

Molecule	activity on ALK signaling
B1	no effect on ALK signaling
B2	agonistic of ALK signaling
B3	inhibited ALK signaling
B4	inhibited ALK signaling
B5	inhibited ALK signaling

Molecular target: Mouse-ALK (Mus musculus, UniProt P97793)
Sequence (P97793 19-1621): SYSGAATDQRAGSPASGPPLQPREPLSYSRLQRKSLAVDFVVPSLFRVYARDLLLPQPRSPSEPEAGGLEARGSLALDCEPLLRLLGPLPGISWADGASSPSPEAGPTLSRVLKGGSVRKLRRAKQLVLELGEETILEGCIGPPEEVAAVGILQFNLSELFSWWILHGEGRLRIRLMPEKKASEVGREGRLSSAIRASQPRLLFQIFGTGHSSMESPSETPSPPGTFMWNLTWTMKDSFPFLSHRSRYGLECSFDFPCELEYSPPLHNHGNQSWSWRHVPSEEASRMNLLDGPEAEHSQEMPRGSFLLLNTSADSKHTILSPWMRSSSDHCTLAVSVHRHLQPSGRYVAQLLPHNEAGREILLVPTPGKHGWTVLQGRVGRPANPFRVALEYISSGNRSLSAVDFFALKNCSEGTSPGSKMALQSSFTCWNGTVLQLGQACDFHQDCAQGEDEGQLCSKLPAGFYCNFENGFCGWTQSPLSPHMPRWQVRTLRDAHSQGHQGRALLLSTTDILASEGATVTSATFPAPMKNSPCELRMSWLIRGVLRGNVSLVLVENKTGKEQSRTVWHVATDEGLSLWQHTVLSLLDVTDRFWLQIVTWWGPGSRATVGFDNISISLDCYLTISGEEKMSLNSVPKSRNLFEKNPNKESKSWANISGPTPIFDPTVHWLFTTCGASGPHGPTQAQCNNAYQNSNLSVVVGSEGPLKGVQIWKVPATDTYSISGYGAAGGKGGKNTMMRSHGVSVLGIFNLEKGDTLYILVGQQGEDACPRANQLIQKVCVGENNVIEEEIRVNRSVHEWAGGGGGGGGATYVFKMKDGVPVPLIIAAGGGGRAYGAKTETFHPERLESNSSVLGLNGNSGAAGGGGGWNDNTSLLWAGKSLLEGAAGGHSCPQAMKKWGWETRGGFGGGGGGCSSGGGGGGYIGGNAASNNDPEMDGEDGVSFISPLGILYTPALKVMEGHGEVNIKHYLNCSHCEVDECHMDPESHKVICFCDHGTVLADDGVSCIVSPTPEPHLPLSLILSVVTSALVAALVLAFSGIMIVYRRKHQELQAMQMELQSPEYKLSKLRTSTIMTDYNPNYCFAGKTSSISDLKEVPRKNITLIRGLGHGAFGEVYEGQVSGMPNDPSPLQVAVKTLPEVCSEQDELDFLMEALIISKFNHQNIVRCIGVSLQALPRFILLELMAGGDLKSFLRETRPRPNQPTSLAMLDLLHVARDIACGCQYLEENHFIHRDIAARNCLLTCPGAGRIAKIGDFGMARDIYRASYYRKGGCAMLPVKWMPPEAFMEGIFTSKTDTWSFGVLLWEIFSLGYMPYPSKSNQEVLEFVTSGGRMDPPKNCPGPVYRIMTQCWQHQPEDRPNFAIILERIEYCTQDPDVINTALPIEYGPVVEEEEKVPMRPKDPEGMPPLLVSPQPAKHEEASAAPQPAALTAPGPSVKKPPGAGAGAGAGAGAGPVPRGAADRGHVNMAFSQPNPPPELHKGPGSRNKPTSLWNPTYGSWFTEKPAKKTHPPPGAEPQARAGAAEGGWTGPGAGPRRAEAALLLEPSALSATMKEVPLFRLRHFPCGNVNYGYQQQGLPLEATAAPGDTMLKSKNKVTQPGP
Experiment: Mouse-ALK binding of ALK antibodies
Method: as §1

Molecule	recognition of human and murine ALK
B2	recognize both the human and murine ALK
B4	recognize both the human and murine ALK
B5	recognize both the human and murine ALK

From patent US20230101046A1, “ANAPLASTIC LYMPHOMA KINASE CHIMERIC ANTIGEN RECEPTORS AND METHODS OF USE” (The Children's Medical Center Corporation, priority 2020, published 2023)
